Experimental data reported in paper PMC8595387 (Scientific Reports, 2021).

Experiments:
[1] = biological target: T1, Recombinant Human ADAMTS13 (Full Length) Protein (Homo sapiens, UniProt Q76LX8); experiment: SPR; Biacore T200; antibodies captured at about 1,000 RU on anti-human or anti-mouse IgG (Fc) on a CM5 chip; ADAMTS13 injected at 80 nM to 0.625 nM in PBS with 0.05% Tween 20; 25 C; 30 uL/min; contact 240 s, dissociation 900 s; 1:1 binding model; conditions: both partners purified
T1 construct: ADAMTS13, human, commercial recombinant protein named 'Full Length' by the vendor; also called a disintegrin-like and metalloproteinase with thrombospondin type-1 motif 13; source: bought: R&D Systems (6156-AD-020)

[2] = biological target: T1, Recombinant Human ADAMTS13 (Full …); experiment: cell-based or functional assay

T1 sequence (Q76LX8 75-1427): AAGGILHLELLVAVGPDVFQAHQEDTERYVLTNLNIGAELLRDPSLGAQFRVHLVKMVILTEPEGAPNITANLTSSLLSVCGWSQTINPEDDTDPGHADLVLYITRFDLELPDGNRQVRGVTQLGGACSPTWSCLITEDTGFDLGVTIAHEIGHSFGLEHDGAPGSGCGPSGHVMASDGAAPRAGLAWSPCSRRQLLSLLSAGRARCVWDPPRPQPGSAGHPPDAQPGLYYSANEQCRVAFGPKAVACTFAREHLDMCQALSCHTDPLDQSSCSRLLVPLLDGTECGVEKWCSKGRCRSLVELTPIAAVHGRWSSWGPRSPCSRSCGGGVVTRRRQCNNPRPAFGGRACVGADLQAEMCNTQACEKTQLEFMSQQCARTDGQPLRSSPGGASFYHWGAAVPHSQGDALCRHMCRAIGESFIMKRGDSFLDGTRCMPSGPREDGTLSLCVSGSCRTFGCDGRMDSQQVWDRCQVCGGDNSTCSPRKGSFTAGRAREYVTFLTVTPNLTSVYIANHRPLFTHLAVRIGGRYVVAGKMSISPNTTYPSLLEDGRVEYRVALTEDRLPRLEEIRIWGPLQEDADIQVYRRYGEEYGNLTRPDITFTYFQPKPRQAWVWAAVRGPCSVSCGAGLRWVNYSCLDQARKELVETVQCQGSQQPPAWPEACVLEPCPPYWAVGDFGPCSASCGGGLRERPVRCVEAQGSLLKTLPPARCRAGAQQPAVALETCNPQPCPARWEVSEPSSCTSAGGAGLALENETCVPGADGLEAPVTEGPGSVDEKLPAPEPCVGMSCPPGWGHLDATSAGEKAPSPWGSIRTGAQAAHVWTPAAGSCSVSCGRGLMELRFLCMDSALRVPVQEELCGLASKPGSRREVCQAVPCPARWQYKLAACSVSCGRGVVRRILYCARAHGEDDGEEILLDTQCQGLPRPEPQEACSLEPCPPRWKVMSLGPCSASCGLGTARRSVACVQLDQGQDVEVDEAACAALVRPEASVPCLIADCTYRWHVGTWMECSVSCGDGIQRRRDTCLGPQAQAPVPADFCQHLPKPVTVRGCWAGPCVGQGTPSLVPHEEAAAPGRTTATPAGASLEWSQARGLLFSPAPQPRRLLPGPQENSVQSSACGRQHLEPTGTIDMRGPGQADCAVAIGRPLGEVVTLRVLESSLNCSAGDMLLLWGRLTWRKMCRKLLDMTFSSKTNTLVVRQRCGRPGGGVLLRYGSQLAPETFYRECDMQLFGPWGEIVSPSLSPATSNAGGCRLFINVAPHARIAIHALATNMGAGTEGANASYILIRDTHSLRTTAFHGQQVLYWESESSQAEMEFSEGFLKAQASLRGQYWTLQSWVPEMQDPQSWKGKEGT

Binder | Kd [1] [nM] | koff [1] [s⁻¹] | kon [1] [M⁻¹ s⁻¹] | IC50 of inhibition of plasma ADAMTS13 activity on VWF cleavage (chromogenic ELISA, normal pooled plasma, antibody 25 to 0.20 ug/mL) [2] [µg/mL]
mouse anti-ADAMTS13 antibody clone A10 (antibody, V domains shown, VH of mA10; mouse heavy chain constant region cloned from the mA10 hybridoma; VL of mA10; mouse light chain constant region cloned from the mA10 hybridoma; Whole mouse IgG; mouse IgG2b served as the negative control, which may hint at IgG2b (surmise); also called mA10; mouse A10; source: Expi293F, transiently transfected, purified (protein G)) VH: EVQLQQSGPELVKPGTSMKISCKASGYSFTGYTMHWVKQSHGKNLEWIGLINPYNGGTGYNQKFKGKATLTVDKSSSTTYIELLSLTSEDSAVYYCARTSGYLFAYWGQGTLVTVSA VL: DIQMTQSSSSFSVSLGDRVTITCKASEDIYNRLAWYQQKPGNAPRLLISGATSLETGVPSRFSGSGSGKDYIFSITSLQTEDVATYYCQQYWSSPLTFGAGTKLELK | 5.99 | 0.000362 | 60400 | 2.28
human-mouse chimeric A10 (antibody, V domains shown) VH: EVQLQQSGPELVKPGTSMKISCKASGYSFTGYTMHWVKQSHGKNLEWIGLINPYNGGTGYNQKFKGKATLTVDKSSSTTYIELLSLTSEDSAVYYCARTSGYLFAYWGQGTLVTVSA VL: DIQMTQSSSSFSVSLGDRVTITCKASEDIYNRLAWYQQKPGNAPRLLISGATSLETGVPSRFSGSGSGKDYIFSITSLQTEDVATYYCQQYWSSPLTFGAGTKLELK | 2.8 | 2.03e-05 | 7270 | 2.3

Continued, values first:

Kd [1] [nM] | koff [1] [s⁻¹] | kon [1] [M⁻¹ s⁻¹] | IC50 of inhibition of plasma ADAMTS13 activity on VWF cleavage (chromogenic ELISA, normal pooled plasma, antibody 25 to 0.20 ug/mL) [2] [µg/mL] | Binder
20.8 | 0.000193 | 9270 | 7.3 | humanized A10 antibody A10/8A7 (antibody, V domains shown) VH: QIHLVESGGGVVQTGKSMKISCKASGYSFTGYTMHWVKQTPGKNLEWIGLINPYNGGTGYNQKFKGKATLTVDKSSSTTYIELLSLTSEDSAVYYCARTSGYLFAYWGQGTLVTVSS VL: ETVMTQSPATLSVSPGERATITCKASEDIYNRLAWYQQKPGQAPRLLISGATSLETGVPSRFSGSGSGTEFTLTISSLQSEDVATYYCQQYWSSPLTFGAGTKLEIK
5.07 | 6.3e-05 | 12400 | 0.9 | humanized A10 antibody A10/16E8 (antibody, V domains shown, VH of A10/16E8 (CDRs and flanking FR residues of mA10 grafted onto the human framework 16E8); VL of A10/16E8 (CDRs and flanking FR residues of mA10 grafted onto the human framework 16E8); also called A10/16A8 (as printed once in the discussion); source: Expi293F, transiently transfected, purified (protein G)) VH: QVQLVQSGGQVKKPGASVKISCKASGYSFTGYTMHWVKQAPGRGLEWIGLINPYNGGTGYNQKFKGKATLTVDKSSSTTYIELLSLTSEDSAVYYCARTSGYLFAYWGQGTLVTVSS VL: DIVLTQTPDSLAVSLGERATITCKASEDIYNRLAWYQQKAGQPPKLLISGATSLETGVPDRFSGSGSGTDFTLTISSLQAEDVATYYCQQYWSSPLTFGAGTKVNIK
